{"source": "paper PMC9482650", "about": "“Quantitative fragmentomics allow affinity mapping of interactomes” (Nature Communications, 2022)", "binders": {"B1": {"name": "LRP4, O75096 (peptide)", "chain": "ERKLSSESQV"}, "B2": {"name": "CNKSR2, Q8WXI2 (peptide)", "chain": "HTHSYIETHV"}, "B3": {"name": "NF2, P35240 (peptide)", "chain": "KSRVAFFEEL"}, "B4": {"name": "MUC3B, MUC3A, Q02505;Q9H195 (peptide)", "chain": "KRPEMTSSSV"}}, "test_in_all_cases": "holdup assay", "set-up_in_all_cases": "key: below the threshold = too weak to quantify, mostly under pKd 3.1 to 4", "key": {"LDB3, O75112": {"target": "LDB3, O75112", "sequence (O75112 1-94)": "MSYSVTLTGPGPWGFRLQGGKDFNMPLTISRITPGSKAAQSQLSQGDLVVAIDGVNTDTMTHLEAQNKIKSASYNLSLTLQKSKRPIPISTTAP"}, "HTRA4, P83105": {"target": "T1, HTRA4, P83105", "T1 sequence (P83105 378-476, limits assumed, looked up)": "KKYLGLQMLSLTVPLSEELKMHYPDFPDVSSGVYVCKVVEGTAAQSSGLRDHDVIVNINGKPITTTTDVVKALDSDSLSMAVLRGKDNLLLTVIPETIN"}, "RAPGEF6, Q8TEU7": {"target": "T2, RAPGEF6, Q8TEU7", "T2 sequence (Q8TEU7 525-625, limits assumed, looked up)": "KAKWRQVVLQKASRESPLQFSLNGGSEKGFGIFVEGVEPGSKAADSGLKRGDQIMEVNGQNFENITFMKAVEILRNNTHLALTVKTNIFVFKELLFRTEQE"}, "MAGI1_2, Q96QZ7": {"target": "MAGI1_2, Q96QZ7", "sequence (Q96QZ7 456-580)": "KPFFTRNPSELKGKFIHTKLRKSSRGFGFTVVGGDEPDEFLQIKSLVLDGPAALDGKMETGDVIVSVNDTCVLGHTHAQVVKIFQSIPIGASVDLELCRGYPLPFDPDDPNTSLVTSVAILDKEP"}, "MAGI2_4, Q86UL8": {"target": "MAGI2_4, Q86UL8", "sequence (Q86UL8 772-865)": "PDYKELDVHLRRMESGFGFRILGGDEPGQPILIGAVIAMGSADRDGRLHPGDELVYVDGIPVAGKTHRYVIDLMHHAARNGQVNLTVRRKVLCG"}, "GRID2IP_2, A4D2P6": {"target": "GRID2IP_2, A4D2P6", "sequence (A4D2P6 272-370)": "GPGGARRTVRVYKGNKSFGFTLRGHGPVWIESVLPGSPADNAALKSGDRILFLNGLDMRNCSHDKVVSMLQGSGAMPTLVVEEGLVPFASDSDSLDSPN"}, "SNTA1, Q13424": {"target": "T3, SNTA1, Q13424", "T3 sequence (Q13424 82-180, limits assumed, looked up)": "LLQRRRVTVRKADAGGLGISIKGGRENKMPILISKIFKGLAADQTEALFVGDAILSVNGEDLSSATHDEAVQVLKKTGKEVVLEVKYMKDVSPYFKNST"}, "AHNAK1, Q09666": {"target": "AHNAK1, Q09666", "sequence (Q09666 4-100)": "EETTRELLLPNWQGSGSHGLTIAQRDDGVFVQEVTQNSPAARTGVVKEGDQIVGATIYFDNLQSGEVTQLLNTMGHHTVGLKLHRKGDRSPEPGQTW"}, "TX1BP3, O14907": {"target": "T4, TX1BP3, O14907", "T4 sequence (O14907 10-122, limits assumed, looked up)": "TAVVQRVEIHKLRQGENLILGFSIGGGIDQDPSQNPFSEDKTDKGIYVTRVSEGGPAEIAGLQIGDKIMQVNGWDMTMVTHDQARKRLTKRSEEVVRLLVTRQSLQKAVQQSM"}, "DLG1_1, Q12959": {"target": "DLG1_1, Q12959"}, "ARHGEF11, O15085": {"target": "T5, ARHGEF11, O15085", "T5 sequence (O15085 42-136, limits assumed, looked up)": "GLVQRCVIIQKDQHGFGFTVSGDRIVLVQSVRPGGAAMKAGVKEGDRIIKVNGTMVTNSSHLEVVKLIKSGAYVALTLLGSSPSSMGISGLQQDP"}, "DLG4_3, P78352": {"target": "DLG4_3, P78352", "sequence (P78352 306-403)": "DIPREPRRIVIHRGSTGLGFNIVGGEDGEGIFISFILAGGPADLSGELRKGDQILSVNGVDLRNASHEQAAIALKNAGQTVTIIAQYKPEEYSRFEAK"}, "GRIP1_7, Q9Y3R0": {"target": "T6, GRIP1_7, Q9Y3R0", "T6 sequence (Q9Y3R0 999-1096, limits assumed, looked up)": "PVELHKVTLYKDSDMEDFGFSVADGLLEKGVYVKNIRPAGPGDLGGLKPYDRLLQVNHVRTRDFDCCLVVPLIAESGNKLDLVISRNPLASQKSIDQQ"}, "DLG5_1, Q8TDM6": {"target": "DLG5_1, Q8TDM6", "sequence (Q8TDM6 617-713)": "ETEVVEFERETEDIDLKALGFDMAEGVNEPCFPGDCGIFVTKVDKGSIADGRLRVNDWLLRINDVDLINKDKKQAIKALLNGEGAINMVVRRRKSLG"}, "NHERF3_4, Q5T2W1": {"target": "T7, NHERF3_4, Q5T2W1", "T7 sequence (Q5T2W1 373-468, limits assumed, looked up)": "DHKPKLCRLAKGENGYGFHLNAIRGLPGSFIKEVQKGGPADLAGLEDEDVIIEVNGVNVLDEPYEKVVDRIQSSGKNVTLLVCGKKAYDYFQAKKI"}, "DLG2_2, Q15700": {"target": "DLG2_2, Q15700", "sequence (Q15700 189-283)": "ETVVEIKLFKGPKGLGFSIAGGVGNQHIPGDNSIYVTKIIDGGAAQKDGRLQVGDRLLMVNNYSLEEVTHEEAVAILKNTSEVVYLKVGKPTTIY"}, "LIN7B, Q9HAP6": {"target": "T8, LIN7B, Q9HAP6", "T8 sequence (Q9HAP6 88-185, limits assumed, looked up)": "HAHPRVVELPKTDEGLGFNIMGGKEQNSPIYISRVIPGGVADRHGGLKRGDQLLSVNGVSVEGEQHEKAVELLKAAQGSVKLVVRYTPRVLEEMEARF"}, "HTRA3, P83110": {"target": "T9, HTRA3, P83110", "T9 sequence (P83110 354-453, limits assumed, looked up)": "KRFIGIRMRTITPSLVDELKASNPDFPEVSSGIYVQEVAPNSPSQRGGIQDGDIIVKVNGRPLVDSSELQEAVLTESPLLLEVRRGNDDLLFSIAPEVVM"}, "RADIL, Q96JH8": {"target": "T10, RADIL, Q96JH8", "T10 sequence (Q96JH8 971-1071, limits assumed, looked up)": "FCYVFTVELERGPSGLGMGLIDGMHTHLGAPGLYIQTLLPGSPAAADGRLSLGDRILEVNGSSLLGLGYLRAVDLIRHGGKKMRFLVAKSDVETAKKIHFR"}, "TJP1_3, Q07157": {"target": "TJP1_3, Q07157", "sequence (Q07157 416-512)": "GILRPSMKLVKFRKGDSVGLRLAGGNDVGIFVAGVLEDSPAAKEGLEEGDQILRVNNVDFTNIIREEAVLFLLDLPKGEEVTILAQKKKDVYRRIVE"}, "SNTB1, Q13884": {"target": "T11, SNTB1, Q13884", "T11 sequence (Q13884 107-205, limits assumed, looked up)": "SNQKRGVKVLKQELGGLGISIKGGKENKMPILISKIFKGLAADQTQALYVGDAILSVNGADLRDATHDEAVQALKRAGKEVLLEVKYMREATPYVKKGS"}, "Inadl_6, Q8NI35": {"target": "Inadl_6, Q8NI35", "sequence (Q8NI35 1058-1167)": "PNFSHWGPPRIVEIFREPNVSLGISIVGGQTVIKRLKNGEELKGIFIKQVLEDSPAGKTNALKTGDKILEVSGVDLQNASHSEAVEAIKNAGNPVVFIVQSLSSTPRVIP"}, "NHERF4_2, Q86UT5": {"target": "NHERF4_2, Q86UT5", "sequence (Q86UT5 220-308)": "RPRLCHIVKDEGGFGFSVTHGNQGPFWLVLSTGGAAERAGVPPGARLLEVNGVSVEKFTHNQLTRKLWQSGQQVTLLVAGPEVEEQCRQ"}, "TJP3_3, O95049": {"target": "T12, TJP3_3, O95049", "T12 sequence (O95049 375-456, limits assumed, looked up)": "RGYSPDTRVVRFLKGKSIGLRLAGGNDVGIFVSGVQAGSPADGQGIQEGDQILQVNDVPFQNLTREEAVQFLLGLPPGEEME"}, "SIPA1L2, Q9P2F8": {"target": "T13, SIPA1L2, Q9P2F8", "T13 sequence (Q9P2F8 945-1036, limits assumed, looked up)": "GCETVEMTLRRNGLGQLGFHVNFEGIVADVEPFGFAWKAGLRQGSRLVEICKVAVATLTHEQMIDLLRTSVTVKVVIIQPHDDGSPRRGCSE"}, "[1]": {"conditions": "plain residues with an end cap or a label only (N-terminal biotin on a linker: ttds)"}, "[2]": {"conditions": "plain residues with an end cap or a label only (N-terminal biotin on a linker: ahx)"}, "[3]": {"conditions": "plain residues with an end cap or a label only (N-terminal biotin on a linker: ado-ado)"}}}
{"binder": "B1", "values": [{"measurement": "pKd", "setting": "LDB3, O75112; [1]", "value": "below the threshold"}, {"measurement": "pKd", "setting": "HTRA4, P83105; [1]", "value": "below the threshold"}, {"measurement": "pKd", "setting": "RAPGEF6, Q8TEU7; [1]", "value": "below the threshold"}, {"measurement": "pKd", "setting": "MAGI1_2, Q96QZ7; [1]", "value": 4.01}, {"measurement": "pKd", "setting": "MAGI2_4, Q86UL8; [1]", "value": 3.83}, {"measurement": "pKd", "setting": "GRID2IP_2, A4D2P6; [1]", "value": "below the threshold"}, {"measurement": "pKd", "setting": "SNTA1, Q13424; [1]", "value": 3.78}, {"measurement": "pKd", "setting": "AHNAK1, Q09666; [1]", "value": "below the threshold"}, {"measurement": "pKd", "setting": "TX1BP3, O14907; [1]", "value": 4.27}, {"measurement": "pKd", "setting": "DLG1_1, Q12959; [1]", "value": 3.82}, {"measurement": "pKd", "setting": "ARHGEF11, O15085; [1]", "value": "below the threshold"}, {"measurement": "pKd", "setting": "DLG4_3, P78352; [1]", "value": "below the threshold"}, {"measurement": "pKd", "setting": "GRIP1_7, Q9Y3R0; [1]", "value": "below the threshold"}, {"measurement": "pKd", "setting": "DLG5_1, Q8TDM6; [1]", "value": "below the threshold"}, {"measurement": "pKd", "setting": "NHERF3_4, Q5T2W1; [1]", "value": "below the threshold"}, {"measurement": "pKd", "setting": "DLG2_2, Q15700; [1]", "value": 4.38}, {"measurement": "pKd", "setting": "LIN7B, Q9HAP6; [1]", "value": "below the threshold"}, {"measurement": "pKd", "setting": "HTRA3, P83110; [1]", "value": "below the threshold"}, {"measurement": "pKd", "setting": "RADIL, Q96JH8; [1]", "value": "below the threshold"}, {"measurement": "pKd", "setting": "TJP1_3, Q07157; [1]", "value": "below the threshold"}, {"measurement": "pKd", "setting": "SNTB1, Q13884; [1]", "value": 4.05}, {"measurement": "pKd", "setting": "Inadl_6, Q8NI35; [1]", "value": "below the threshold"}, {"measurement": "pKd", "setting": "NHERF4_2, Q86UT5; [1]", "value": "below the threshold"}, {"measurement": "pKd", "setting": "TJP3_3, O95049; [1]", "value": "below the threshold"}, {"measurement": "pKd", "setting": "SIPA1L2, Q9P2F8; [1]", "value": "below the threshold"}]}
{"binder": "B2", "values": [{"measurement": "pKd", "setting": "LDB3, O75112; [2]", "value": "below the threshold"}, {"measurement": "pKd", "setting": "HTRA4, P83105; [2]", "value": 3.9}, {"measurement": "pKd", "setting": "RAPGEF6, Q8TEU7; [2]", "value": "below the threshold"}, {"measurement": "pKd", "setting": "MAGI1_2, Q96QZ7; [2]", "value": 3.9}, {"measurement": "pKd", "setting": "MAGI2_4, Q86UL8; [2]", "value": "below the threshold"}, {"measurement": "pKd", "setting": "GRID2IP_2, A4D2P6; [2]", "value": "below the threshold"}, {"measurement": "pKd", "setting": "SNTA1, Q13424; [2]", "value": 4.93}, {"measurement": "pKd", "setting": "AHNAK1, Q09666; [2]", "value": "below the threshold"}, {"measurement": "pKd", "setting": "TX1BP3, O14907; [2]", "value": 5.47}, {"measurement": "pKd", "setting": "DLG1_1, Q12959; [2]", "value": 4.62}, {"measurement": "pKd", "setting": "ARHGEF11, O15085; [2]", "value": "below the threshold"}, {"measurement": "pKd", "setting": "DLG4_3, P78352; [2]", "value": 3.74}, {"measurement": "pKd", "setting": "GRIP1_7, Q9Y3R0; [2]", "value": "below the threshold"}, {"measurement": "pKd", "setting": "DLG5_1, Q8TDM6; [2]", "value": "below the threshold"}, {"measurement": "pKd", "setting": "NHERF3_4, Q5T2W1; [2]", "value": "below the threshold"}, {"measurement": "pKd", "setting": "DLG2_2, Q15700; [2]", "value": 4.42}, {"measurement": "pKd", "setting": "LIN7B, Q9HAP6; [2]", "value": "below the threshold"}, {"measurement": "pKd", "setting": "HTRA3, P83110; [2]", "value": "below the threshold"}, {"measurement": "pKd", "setting": "RADIL, Q96JH8; [2]", "value": 4.22}, {"measurement": "pKd", "setting": "TJP1_3, Q07157; [2]", "value": "below the threshold"}, {"measurement": "pKd", "setting": "SNTB1, Q13884; [2]", "value": 4.6}, {"measurement": "pKd", "setting": "Inadl_6, Q8NI35; [2]", "value": 4.22}, {"measurement": "pKd", "setting": "NHERF4_2, Q86UT5; [2]", "value": "below the threshold"}, {"measurement": "pKd", "setting": "TJP3_3, O95049; [2]", "value": "below the threshold"}, {"measurement": "pKd", "setting": "SIPA1L2, Q9P2F8; [2]", "value": "below the threshold"}]}
{"binder": "B3", "values": [{"measurement": "pKd", "setting": "LDB3, O75112; [3]", "value": 3.9}, {"measurement": "pKd", "setting": "MAGI1_2, Q96QZ7; [3]", "value": 3.53}, {"measurement": "pKd", "setting": "MAGI2_4, Q86UL8; [3]", "value": 3.83}, {"measurement": "pKd", "setting": "GRID2IP_2, A4D2P6; [3]", "value": 3.59}, {"measurement": "pKd", "setting": "DLG4_3, P78352; [3]", "value": 3.52}, {"measurement": "pKd", "setting": "GRIP1_7, Q9Y3R0; [3]", "value": 3.49}, {"measurement": "pKd", "setting": "NHERF3_4, Q5T2W1; [3]", "value": 3.59}, {"measurement": "pKd", "setting": "DLG2_2, Q15700; [3]", "value": 3.51}, {"measurement": "pKd", "setting": "SNTB1, Q13884; [3]", "value": 3.54}, {"measurement": "pKd", "setting": "Inadl_6, Q8NI35; [3]", "value": 3.47}, {"measurement": "pKd", "setting": "NHERF4_2, Q86UT5; [3]", "value": 3.66}]}
{"binder": "B4", "values": [{"measurement": "pKd", "setting": "RAPGEF6, Q8TEU7; [3]", "value": "below the threshold"}, {"measurement": "pKd", "setting": "MAGI1_2, Q96QZ7; [3]", "value": "below the threshold"}, {"measurement": "pKd", "setting": "TX1BP3, O14907; [3]", "value": 4.5}, {"measurement": "pKd", "setting": "DLG5_1, Q8TDM6; [3]", "value": "below the threshold"}, {"measurement": "pKd", "setting": "NHERF3_4, Q5T2W1; [3]", "value": "below the threshold"}]}
